Common to all, as to assay: FRET or BRET
For orientation: BRET reads energy transfer from a luciferase to a nearby fluorophore.

Experiment [1] concerns the target endothelin A receptor fused to Rluc8 (ETA-Rluc8) (UniProt P25101).
Experiment [2] deals with Smoothened fused to Rluc8 (Smo-Rluc8) (UniProt Q99835).
Experiment [3] addresses formyl peptide 1 receptor fused to Rluc8 (FPR1) (UniProt P21462).
Experiment [4] deals with thromboxane A2 receptor fused to Rluc8 (TP-Rluc8) (UniProt P21731).
Experiment [5] has as its target formyl peptide 2 receptor fused to Rluc8 (FPR2-Rluc8) (UniProt P25090).
Sequence of UniProt P25090 (P25090 whole entry, the tested form may be a part): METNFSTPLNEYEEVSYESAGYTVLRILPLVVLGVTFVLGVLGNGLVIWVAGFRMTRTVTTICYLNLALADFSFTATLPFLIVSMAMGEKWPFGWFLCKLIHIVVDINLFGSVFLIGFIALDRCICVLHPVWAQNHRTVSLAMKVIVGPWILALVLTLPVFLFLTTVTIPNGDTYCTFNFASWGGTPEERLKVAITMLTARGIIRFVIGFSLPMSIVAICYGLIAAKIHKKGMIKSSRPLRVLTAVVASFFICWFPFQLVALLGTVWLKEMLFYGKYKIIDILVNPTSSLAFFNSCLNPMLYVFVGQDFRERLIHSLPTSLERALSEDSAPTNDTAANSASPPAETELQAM

Sequence of UniProt P25101 (P25101 21-427): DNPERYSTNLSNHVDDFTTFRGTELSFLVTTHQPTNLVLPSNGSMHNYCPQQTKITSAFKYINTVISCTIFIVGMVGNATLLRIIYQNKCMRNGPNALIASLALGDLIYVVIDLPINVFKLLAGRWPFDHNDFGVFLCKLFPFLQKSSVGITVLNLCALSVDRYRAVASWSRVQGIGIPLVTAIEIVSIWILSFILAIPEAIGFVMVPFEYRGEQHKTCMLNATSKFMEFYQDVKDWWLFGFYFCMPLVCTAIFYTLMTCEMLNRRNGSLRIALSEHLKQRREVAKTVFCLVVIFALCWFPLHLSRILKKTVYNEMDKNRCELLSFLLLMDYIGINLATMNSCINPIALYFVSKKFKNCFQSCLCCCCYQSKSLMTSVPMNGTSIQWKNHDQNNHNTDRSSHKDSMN
Sequence of UniProt P21731 (P21731 whole entry, the tested form may be a part): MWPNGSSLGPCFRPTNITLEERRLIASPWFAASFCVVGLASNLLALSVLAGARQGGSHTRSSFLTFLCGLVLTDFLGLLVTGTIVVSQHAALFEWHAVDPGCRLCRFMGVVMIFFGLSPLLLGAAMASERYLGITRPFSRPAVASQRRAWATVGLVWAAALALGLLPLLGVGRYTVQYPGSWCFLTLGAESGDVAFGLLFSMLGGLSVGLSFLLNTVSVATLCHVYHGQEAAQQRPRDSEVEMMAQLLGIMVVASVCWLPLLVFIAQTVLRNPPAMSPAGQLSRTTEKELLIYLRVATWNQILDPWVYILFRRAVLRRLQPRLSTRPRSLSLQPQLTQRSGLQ
Sequence of UniProt Q99835 (Q99835 28-787): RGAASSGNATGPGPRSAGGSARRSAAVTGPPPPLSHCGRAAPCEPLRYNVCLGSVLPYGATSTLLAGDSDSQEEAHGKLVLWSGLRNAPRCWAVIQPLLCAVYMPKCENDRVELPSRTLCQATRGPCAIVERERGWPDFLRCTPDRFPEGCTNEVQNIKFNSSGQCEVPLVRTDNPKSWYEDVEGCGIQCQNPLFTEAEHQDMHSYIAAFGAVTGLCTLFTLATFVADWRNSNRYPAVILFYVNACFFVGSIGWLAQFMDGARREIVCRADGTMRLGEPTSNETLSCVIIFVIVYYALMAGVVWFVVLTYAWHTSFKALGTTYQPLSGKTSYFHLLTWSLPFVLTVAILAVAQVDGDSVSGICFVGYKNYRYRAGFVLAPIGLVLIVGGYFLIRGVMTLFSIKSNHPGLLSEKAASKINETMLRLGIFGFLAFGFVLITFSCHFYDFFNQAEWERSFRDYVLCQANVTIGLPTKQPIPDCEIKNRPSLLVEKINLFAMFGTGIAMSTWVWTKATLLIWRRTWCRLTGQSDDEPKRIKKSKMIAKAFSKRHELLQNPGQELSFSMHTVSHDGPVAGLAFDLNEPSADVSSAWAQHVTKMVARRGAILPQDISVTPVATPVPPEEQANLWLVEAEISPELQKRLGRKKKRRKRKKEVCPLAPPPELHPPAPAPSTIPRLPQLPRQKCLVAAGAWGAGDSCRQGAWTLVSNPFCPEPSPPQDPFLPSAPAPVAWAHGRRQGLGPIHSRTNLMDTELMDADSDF
Sequence of UniProt P21462 (P21462 whole entry, the tested form may be a part): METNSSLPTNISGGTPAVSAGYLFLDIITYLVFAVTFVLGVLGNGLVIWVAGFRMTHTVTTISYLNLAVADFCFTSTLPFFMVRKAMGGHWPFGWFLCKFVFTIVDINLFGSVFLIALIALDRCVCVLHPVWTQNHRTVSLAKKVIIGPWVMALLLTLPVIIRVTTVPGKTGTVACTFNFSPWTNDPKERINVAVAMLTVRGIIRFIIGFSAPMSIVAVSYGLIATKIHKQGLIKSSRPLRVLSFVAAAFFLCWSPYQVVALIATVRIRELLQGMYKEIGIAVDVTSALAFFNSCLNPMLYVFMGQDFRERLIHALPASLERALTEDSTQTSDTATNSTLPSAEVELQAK

Consider “Gq heterotrimer, Gαqβ1γ2-Venus (from UniProt P50148;P62873;P59768) (complex)”, for which the RGDP (GDP-resistance ratio) in experiment [1] turned out to be 0.29.

For “G12 heterotrimer, Gα12β1γ2-Venus (from UniProt Q03113;P62873;P59768) (complex)”, the RGDP (GDP-resistance ratio) turned out to be 1.01 in experiment [2], 0.66 in experiment [1], 0.96 in experiment [3] and 0.55 in experiment [4].

Consider “G12 heterotrimer, Gα12β1γ2-Venus (from UniProt Q03113;P62873;P59768) (complex; other documents disagree on this pair)”, for which the RGDP (GDP-resistance ratio) in experiment [5] is 0.92.

Take “G13 heterotrimer, Gα13β1γ2-Venus (from UniProt Q14344;P62873;P59768) (complex)”: the RGDP (GDP-resistance ratio) in experiment [1] is 0.21; in experiment [4], 0.18.

(Values after article PMC7474645.)
